What all share (test): cell-based or functional assay
Assay [1] concerns the target FKBP12v36-ΔCaspase-9 encoded by the retroviral vectors pSFG-iC9.T2A-ΔCD19 (pBP0220) and its FRBL derivatives pBP0755, pBP0756, pBP0757 (human).
The target in assay [2] is Four tandem FRBL domains encoded by pBP0725 (pSH1-FRBl.FRBl′.LS.FRBl″.FRBl′″).
For assay [3], the target named is FKBP.FRB.ΔC9 encoded by pBP1311 (pSFG.FKBP.FRB.ΔC9.T2A-ΔCD19).
The target of assay [4] is FRB.FKBP.ΔC9 encoded by pBP1310 (pSFG.FRB.FKBP.ΔC9.T2A-ΔCD19).
For assay [5], the target named is Four tandem FKBP12 (Fpk) domains encoded by pBP0722 (pSH1-Fpk-Fpk′.LS.Fpk″.Fpk′″.LS.HA) (Homo sapiens (Human)) (UniProt P62942).
Assay [6] has as its target First generation CD19-CAR fused to two tandem FRBl domains, co-expressed with inducible Caspase-9.
For assay [7], the target named is First generation Her2-CAR fused to two tandem FRBl domains.
The target in assay [8] is MyD88-CD40 fused to wild-type FKBP12 and FRBL, encoded by pBP1440.
Assay [9] deals with Non-myristoylated inducible MyD88/CD40 with two FKBP12v36 domains, encoded by pBP0606 (pSFG-k-ΔMyr.iMC.2A-ΔCD19) (human).
Sequence of Non-myristoylated inducible MyD88/CD40 with two FKBP12v36 domains, encoded by pBP0606 (pSFG-k-ΔMyr.iMC.2A-ΔCD19) (human) (chain, as listed by the source mutant limits assumed): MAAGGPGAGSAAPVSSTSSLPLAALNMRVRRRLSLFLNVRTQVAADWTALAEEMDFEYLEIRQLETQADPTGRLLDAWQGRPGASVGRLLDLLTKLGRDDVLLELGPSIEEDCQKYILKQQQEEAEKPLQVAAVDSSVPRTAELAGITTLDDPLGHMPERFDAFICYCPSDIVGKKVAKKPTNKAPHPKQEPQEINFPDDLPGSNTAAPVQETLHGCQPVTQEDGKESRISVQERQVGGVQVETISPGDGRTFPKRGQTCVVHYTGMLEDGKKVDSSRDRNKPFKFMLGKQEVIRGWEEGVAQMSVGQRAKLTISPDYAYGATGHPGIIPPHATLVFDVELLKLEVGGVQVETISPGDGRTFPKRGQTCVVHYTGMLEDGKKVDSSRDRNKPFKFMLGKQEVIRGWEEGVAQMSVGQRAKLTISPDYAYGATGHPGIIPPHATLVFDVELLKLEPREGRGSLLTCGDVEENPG

Sequence of Four tandem FRBL domains encoded by pBP0725 (pSH1-FRBl.FRBl′.LS.FRBl″.FRBl′″) (chain, as listed by the source limits assumed): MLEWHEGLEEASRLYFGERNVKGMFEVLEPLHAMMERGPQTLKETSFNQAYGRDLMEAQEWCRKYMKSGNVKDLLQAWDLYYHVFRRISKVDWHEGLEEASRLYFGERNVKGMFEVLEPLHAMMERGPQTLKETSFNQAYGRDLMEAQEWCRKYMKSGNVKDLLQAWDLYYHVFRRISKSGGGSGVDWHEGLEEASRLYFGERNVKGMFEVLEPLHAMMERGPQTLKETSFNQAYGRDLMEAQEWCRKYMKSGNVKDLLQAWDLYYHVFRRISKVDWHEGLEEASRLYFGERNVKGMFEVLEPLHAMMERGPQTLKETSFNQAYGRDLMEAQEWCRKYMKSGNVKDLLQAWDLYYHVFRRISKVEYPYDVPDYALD
Sequence of MyD88-CD40 fused to wild-type FKBP12 and FRBL, encoded by pBP1440 (chain): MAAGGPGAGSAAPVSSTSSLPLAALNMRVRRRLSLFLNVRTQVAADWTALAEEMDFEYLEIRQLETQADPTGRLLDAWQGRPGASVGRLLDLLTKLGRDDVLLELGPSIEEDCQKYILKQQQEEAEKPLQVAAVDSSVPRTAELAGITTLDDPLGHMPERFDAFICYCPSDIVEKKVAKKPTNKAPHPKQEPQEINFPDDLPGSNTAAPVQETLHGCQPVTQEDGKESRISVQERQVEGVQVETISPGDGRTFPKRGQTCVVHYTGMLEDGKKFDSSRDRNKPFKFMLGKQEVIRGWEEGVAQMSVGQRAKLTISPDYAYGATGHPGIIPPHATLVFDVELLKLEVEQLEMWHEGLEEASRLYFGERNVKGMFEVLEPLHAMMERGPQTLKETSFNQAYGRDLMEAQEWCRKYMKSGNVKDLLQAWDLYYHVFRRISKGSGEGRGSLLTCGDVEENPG
Sequence of Two FRBL domains fused to ΔCaspase-9, encoded by pBP0668 (pSFG-FRBlx2.Caspase9.2A-Q.8stm.CD3zeta) (chain): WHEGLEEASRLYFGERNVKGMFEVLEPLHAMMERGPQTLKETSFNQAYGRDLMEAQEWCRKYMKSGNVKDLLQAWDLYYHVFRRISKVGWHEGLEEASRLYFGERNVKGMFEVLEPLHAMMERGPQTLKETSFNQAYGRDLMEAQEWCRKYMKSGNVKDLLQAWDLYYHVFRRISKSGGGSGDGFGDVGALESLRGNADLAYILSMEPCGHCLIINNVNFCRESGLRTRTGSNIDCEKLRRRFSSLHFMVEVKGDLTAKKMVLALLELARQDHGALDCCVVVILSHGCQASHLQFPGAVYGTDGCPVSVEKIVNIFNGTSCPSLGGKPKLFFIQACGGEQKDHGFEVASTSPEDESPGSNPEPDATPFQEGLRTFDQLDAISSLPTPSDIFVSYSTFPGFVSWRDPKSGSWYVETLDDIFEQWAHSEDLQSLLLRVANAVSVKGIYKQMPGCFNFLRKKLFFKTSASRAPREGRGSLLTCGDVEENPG
Sequence of FKBP.FRB.ΔC9 encoded by pBP1311 (pSFG.FKBP.FRB.ΔC9.T2A-ΔCD19) (chain): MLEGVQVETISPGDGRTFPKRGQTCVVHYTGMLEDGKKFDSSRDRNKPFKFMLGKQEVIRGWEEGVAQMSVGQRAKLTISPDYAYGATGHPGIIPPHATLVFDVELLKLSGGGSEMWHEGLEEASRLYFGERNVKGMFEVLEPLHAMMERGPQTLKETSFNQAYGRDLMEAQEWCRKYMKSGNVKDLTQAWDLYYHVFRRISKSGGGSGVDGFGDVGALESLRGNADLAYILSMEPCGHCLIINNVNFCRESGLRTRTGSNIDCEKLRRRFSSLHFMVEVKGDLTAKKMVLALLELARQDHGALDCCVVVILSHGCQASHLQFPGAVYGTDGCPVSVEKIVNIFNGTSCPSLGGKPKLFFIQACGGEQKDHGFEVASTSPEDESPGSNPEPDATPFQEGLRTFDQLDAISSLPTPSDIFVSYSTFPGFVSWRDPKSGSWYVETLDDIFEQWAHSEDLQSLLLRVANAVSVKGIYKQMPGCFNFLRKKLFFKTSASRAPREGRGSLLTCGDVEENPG
Sequence of FRB.FKBP.ΔC9 encoded by pBP1310 (pSFG.FRB.FKBP.ΔC9.T2A-ΔCD19) (chain): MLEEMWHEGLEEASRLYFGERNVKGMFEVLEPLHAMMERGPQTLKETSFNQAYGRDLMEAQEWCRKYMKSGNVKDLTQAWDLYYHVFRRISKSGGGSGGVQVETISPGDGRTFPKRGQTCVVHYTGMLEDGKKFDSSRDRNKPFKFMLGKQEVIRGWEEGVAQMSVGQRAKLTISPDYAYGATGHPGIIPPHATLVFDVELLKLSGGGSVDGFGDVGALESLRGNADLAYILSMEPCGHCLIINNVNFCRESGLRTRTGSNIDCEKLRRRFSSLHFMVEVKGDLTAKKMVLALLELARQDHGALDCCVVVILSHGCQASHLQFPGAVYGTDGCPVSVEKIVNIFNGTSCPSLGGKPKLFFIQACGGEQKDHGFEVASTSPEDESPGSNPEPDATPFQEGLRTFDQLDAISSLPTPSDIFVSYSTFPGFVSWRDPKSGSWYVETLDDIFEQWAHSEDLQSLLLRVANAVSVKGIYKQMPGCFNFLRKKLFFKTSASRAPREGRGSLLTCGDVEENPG

The substance “FKBP12v36-ΔCaspase-9 encoded by the retroviral vectors pSFG-iC9.T2A-ΔCD19 (pBP0220) and its FRBL derivatives pBP0755, pBP0756, pBP0757” gave a rapamycin concentration without effect in the SRα-SEAP assay, transfected 293 cells in assay [1] of over 1000 nM.

For “FKBP12v36-ΔCaspase-9 fusion encoded by pBP0044 (pSH1-iCaspase9wt)”, the IC50 of rapamycin or C7-isopropoxy-rapamycin for loss of constitutive SRα-SEAP reporter activity (cell death), transfected 293 cells in [2] was determined as 3 nM.

For “FKBP.FRB.ΔC9 encoded by pBP1311 (pSFG.FKBP.FRB.ΔC9.T2A-ΔCD19)”, the lowest rapamycin concentration with high activity (caspase 3/7 IncuCyte assay and SRα-SEAP assay), transfected 293 cells in assay [3] turned out to be 100 pM.

Take “FRB.FKBP.ΔC9 encoded by pBP1310 (pSFG.FRB.FKBP.ΔC9.T2A-ΔCD19)”: in [4], the lowest rapamycin concentration with high activity (caspase 3/7 IncuCyte assay and SRα-SEAP assay), transfected 293 cells was 100 pM.

As to “FRBL-ΔCaspase-9 fusion encoded by pBP0463 (pSH1-FRBL.dCaspase9.T2A)”, the IC50 of rapamycin or C7-isopropoxy-rapamycin for loss of constitutive SRα-SEAP reporter activity (cell death), transfected 293 cells in assay [5] came to 3 nM.

With “Inducible Caspase-9 (FKBP-tagged Caspase-9) as used in Example 17”, the decrease of constitutive SRα-SEAP activity with rapamycin, transfected 293 cells (% decrease of SEAP activity) in [6] and in assay [7] was 50 in each case.

In assay [8], “MyD88-CD40 fused to wild-type FKBP12 and FRBL, encoded by pBP1440” came in with an EC50 of rapamycin or isobutyloxyrapamycin in the NF-κB SeAP reporter assay, transfected 293T cells of under 1 nM.

For “Two FRBL domains fused to ΔCaspase-9, encoded by pBP0668 (pSFG-FRBlx2.Caspase9.2A-Q.8stm.CD3zeta)”, the rapamycin level giving elimination of CD34+CD19+ doubly transduced primary T cells (flow cytometry, 24 h) in [9] came out at 2 nM.

The values are drawn from patent publication US20170166877A1.
